Test results taken from US20190112362A1 (published 2019).
Numbering of substitutions follows the chain as printed. Values belong to the binder of their own block, whether it stands above or below them.

Molecular target: Monomeric cynomolgus monkey Tau (cynomolgus monkey, UniProt P57786 2-459 (rhesus entry))
Assay: SPR, hIgG captured, cynomolgus Tau monomer analyte, 1:1 model

Monomeric cynomolgus monkey Tau, sequence (P57786 other isoform, or with tags, fused parts or gaps limits assumed, form in doubt): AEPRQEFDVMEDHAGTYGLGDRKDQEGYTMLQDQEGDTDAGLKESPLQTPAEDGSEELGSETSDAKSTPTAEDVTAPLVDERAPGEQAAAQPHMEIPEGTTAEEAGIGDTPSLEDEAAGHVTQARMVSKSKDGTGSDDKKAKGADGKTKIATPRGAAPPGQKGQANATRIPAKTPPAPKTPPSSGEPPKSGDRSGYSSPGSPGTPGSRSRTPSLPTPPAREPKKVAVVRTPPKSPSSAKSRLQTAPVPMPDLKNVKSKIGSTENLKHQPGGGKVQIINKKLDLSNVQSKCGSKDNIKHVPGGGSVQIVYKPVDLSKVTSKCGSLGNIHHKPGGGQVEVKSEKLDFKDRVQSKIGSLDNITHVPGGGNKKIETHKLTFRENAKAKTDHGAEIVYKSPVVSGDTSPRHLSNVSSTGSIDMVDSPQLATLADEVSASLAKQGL

Kd: 0.7 nM | koff: 0.001 s⁻¹ | kon: 1.7e+06 M⁻¹ s⁻¹
B1: hu37D3.v28.A4 (antibody, V domains shown)
VH: EVQLVESGGGLVQPGGSLRLSCAASGLIFRSYGMSWVRQAPGKGLEWVATINSGGTYTYYPDSVKGRFTISRDNSKNTLYLQMNSLRAEDTAVYYCANSYSGAMDYWGQGTLVTVSS
VL: DDVLTQTPLSLPVTPGQPASISCRSSQSIVHSNGNTYLEWYLQKPGQSPQLLIYKVSNRFSGVPDRFSGSGSGTDFTLKISRVEAEDVGVYYCFQGSLVPWTFGQGTKVEIK
notes: also called hu37D3-H9.v28.A4

Kd: 0.6 nM | koff: 0.001 s⁻¹ | kon: 1.5e+06 M⁻¹ s⁻¹
B2: hu37D3-H9.v5 (antibody, V domains shown)
VH: B1 VH
VL: B1 VL with D1E, L38F
notes: Kappa2 framework

Kd: 0.8 nM | kon: 2e+06 M⁻¹ s⁻¹
B3: hu37D3-H9.v1 (antibody, V domains shown)
VH: B1 VH
VL: EDQLTQSPSSLSASVGDRVTITCRSSQSIVHSNGNTYFEWYQQKPGKSPKLLIYKVSNRFSGVPSRFSGSGSGTDFTLTISSLQPEDFATYYCFQGSLVPWTFGQGTKVEIK
notes: Kappa1 framework
